In patent US9175313B2, “Three-dimensional structure of isoprene synthase and its use thereof for generating variants” (Danisco US Inc., priority 2009, dated 2015):

Test: DMAPP assay of site evaluation library (SEL) lysates with ELISA protein quantitation: specific activity ranked as performance index
Type: biochemical
Settings: primary SEL screen; activity on DMAPP per unit weight relative to the parental molecule (parent = 1)
Procedure: 1. Prepared Patch Plates from Glycerol Stock Plates. Using a V&S 96 pin Replication Tool, cultures were patched onto a LB Agar 35 CMP/50 Kan large patch plates from overnight glycerol stock plates. Plates were incubated at 30° C. overnight for 20 to 24 hr. Cultures can be stored at 4° C. for up to a week.
2. Prepared Overnight Growth Plates. 500 mL of LB 35 CMP/50 Kan media were prepared. 300 μL/well of LB 35 CMP/50 Kan media were dispensed into deep 96 well plates (VWR). Using a V&S Replication Tool, the patch inoculum was transferred into deep 96 well plate by touching the tool pins to respective patch and using a circular motion to coat the pins with inoculum. The media was inoculated by dipping the tool then shaking the pin within the well. The overnight growth plates were sealed using a Breathe-Easier Sealing Membrane (Diversified Biotech). The plates were incubated in a Vertiga Shaking Incubator at 30° C. with shaking at 800 rpm overnight for 16 to 18 hr.
3. Prepared Day Growth Plate. Deep 96 well plates were prepared by dispensing 588 μL/well of LB 35 CMP/50 Kan media. Overnight growth plates were removed from the incubator. Overnight cultures were diluted 50-fold and 12 μL of overnight culture were transferred to day growth plates containing 588 μL/well of LB media containing antiobiotics. Overnight growth plates were sealed with new Breathe-Easier Sealing Membranes. Cultures were incubated at 30° C. and 800 rpm for 2.5 hr. Frozen 12 mM IPTG (Sigma) vials were removed from −20° C. and placed in a hood to thaw.
4. OD600 Plate Read of Overnight, Induction, and Harvest. 150 μL 1×PBS were dispensed into 96 well Costar Read Plates (#9017). 50 μL of culture samples were transferred to Read Plates. The OD600 reading was recorded using a Spectramax Plate Reader (Molecular Devices).
5. Induction. Electronic multi-channel pipettors were prepared to dispense 4×20 μL/well of IPTG (if 4× replicates). The multi-dispense option in the electronic pipettor was adjusted if more replicates was necessary. Thawed 12 mM IPTG was poured into 50 mL or 100 mL sterile reservoirs. 20 μL/well of IPTG into each 600 μL/well culture. Overnight growth plates were resealed. Cultures were incubated at 30° C. and 800 rpm for 4 hr. OD600 readings of plates were recorded according instructions above.
6. Harvest. 400 μL of induced culture were transferred to 800 μL Grenier storage plates. Plates were centrifuged at 3300 rpm for 20 min at 2° to 8° C. in a low speed benchtop centrifuge. Supernatants were discarded, pellets should stay in the conical bottom well. Residual supernatants were slapped out onto a paper towel on the benchtop. Plates were sealed with an aluminum foil membrane (Beckman-Coulter). Plates were covered with a plastic plate lid if available. Storage plates were labeled accordingly and stored frozen at −80° C.
Plates containing induced cell pellets were removed from the −80° C. freezer and allowed to thaw on the benchtop for 30 minutes prior to lysis. 200 μl of lysis buffer (50 mM Tris pH 8, 25 mM MgCl2, 74 μg/ml DNase I, 250 U/ml lysozyme, 0.1% Tween 20, 0.5 mM PMSF) was added to each pellet, and plates were incubated on an Eppendorf Thermomixer at 25° C. for 30 minutes at 1200 rpm. After lysis, plates were centrifuged at 3450 rpm for 15 minutes at 4° C. Supernatants were then removed and diluted 10-fold prior to DMAPP assay. 80 μl of the diluted supernatant was added to 20 μl of the DMAPP working stock (20 mM DMAPP in 0.1 M Phosphate Buffer pH 8.2, DMAPP triammonium salt, Cayman chemicals) in a Zinsser glass block. Blocks were then sealed with aluminum sealing membranes, and incubated in Thermomixers at 25° C. for 30 minutes at 450 rpm. Reactions were stopped by incubating blocks on Thermomixers at 70° C. for 12 minutes at 450 rpm. GC-MS was then used for headspace measurements to calculate the amount of isoprene produced by each lysates.
Headspace Assay. […]

Molecule | performance index
D345K: P. alba IspS variant (protein, UniProt Q50L36 38-595, looked up, variant D345K) Isoprene synthase, …: CSVSTENVSFTETETEARRSANYEPNSWDYDYLLSSDTDESIEVYKDKAKKLEAEVRREINNEKAEFLTLLELIDNVQRLGLGYRFESDIRGALDRFVSSGGFDAVTKTSLHGTALSFRLLRQHGFEVSQEAFSGFKDQNGNFLENLKEDIKAILSLYEASFLALEGENILDEAKVFAISHLKELSEEKIGKELAEQVNHALELPLHRRTQRLEAVWSIEAYRKKEDANQVLLELAILDYNMIQSVYQRDLRETSRWWRRVGLATKLHFARDRLIESFYWAVGVAFEPQYSDCRNSVAKMFSFVTIIKDIYDVYGTLDELELFTDAVERWDVNAINDLPDYMKLCFLALYNTINEIAYDNLKDKGENILPYLTKAWADLCNAFLQEAKWLYNKSTPTFDDYFGNAWKSSSGPLQLVFAYFAVVQNIKKEEIENLQKYHDTISRPSHIFRLCNDLASASAEIARGETANSVSCYMRTKGISEELATESVMNLIDETWKKMNKEKLGGSLFAKPFVETAINLARQSHCTYHNGDAHTSPDELTRKRVLSVITEPILPFER | 0.69
D345G: P. alba IspS variant (protein, UniProt Q50L36 38-595, looked up, variant D345G) Isoprene synthase, …: CSVSTENVSFTETETEARRSANYEPNSWDYDYLLSSDTDESIEVYKDKAKKLEAEVRREINNEKAEFLTLLELIDNVQRLGLGYRFESDIRGALDRFVSSGGFDAVTKTSLHGTALSFRLLRQHGFEVSQEAFSGFKDQNGNFLENLKEDIKAILSLYEASFLALEGENILDEAKVFAISHLKELSEEKIGKELAEQVNHALELPLHRRTQRLEAVWSIEAYRKKEDANQVLLELAILDYNMIQSVYQRDLRETSRWWRRVGLATKLHFARDRLIESFYWAVGVAFEPQYSDCRNSVAKMFSFVTIIGDIYDVYGTLDELELFTDAVERWDVNAINDLPDYMKLCFLALYNTINEIAYDNLKDKGENILPYLTKAWADLCNAFLQEAKWLYNKSTPTFDDYFGNAWKSSSGPLQLVFAYFAVVQNIKKEEIENLQKYHDTISRPSHIFRLCNDLASASAEIARGETANSVSCYMRTKGISEELATESVMNLIDETWKKMNKEKLGGSLFAKPFVETAINLARQSHCTYHNGDAHTSPDELTRKRVLSVITEPILPFER | 0.55
D345E: P. alba IspS variant (protein, UniProt Q50L36 38-595, looked up, variant D345E) Isoprene synthase, …: CSVSTENVSFTETETEARRSANYEPNSWDYDYLLSSDTDESIEVYKDKAKKLEAEVRREINNEKAEFLTLLELIDNVQRLGLGYRFESDIRGALDRFVSSGGFDAVTKTSLHGTALSFRLLRQHGFEVSQEAFSGFKDQNGNFLENLKEDIKAILSLYEASFLALEGENILDEAKVFAISHLKELSEEKIGKELAEQVNHALELPLHRRTQRLEAVWSIEAYRKKEDANQVLLELAILDYNMIQSVYQRDLRETSRWWRRVGLATKLHFARDRLIESFYWAVGVAFEPQYSDCRNSVAKMFSFVTIIEDIYDVYGTLDELELFTDAVERWDVNAINDLPDYMKLCFLALYNTINEIAYDNLKDKGENILPYLTKAWADLCNAFLQEAKWLYNKSTPTFDDYFGNAWKSSSGPLQLVFAYFAVVQNIKKEEIENLQKYHDTISRPSHIFRLCNDLASASAEIARGETANSVSCYMRTKGISEELATESVMNLIDETWKKMNKEKLGGSLFAKPFVETAINLARQSHCTYHNGDAHTSPDELTRKRVLSVITEPILPFER | 0.61
D345N: P. alba IspS variant (protein, UniProt Q50L36 38-595, looked up, variant D345N) Isoprene synthase, …: CSVSTENVSFTETETEARRSANYEPNSWDYDYLLSSDTDESIEVYKDKAKKLEAEVRREINNEKAEFLTLLELIDNVQRLGLGYRFESDIRGALDRFVSSGGFDAVTKTSLHGTALSFRLLRQHGFEVSQEAFSGFKDQNGNFLENLKEDIKAILSLYEASFLALEGENILDEAKVFAISHLKELSEEKIGKELAEQVNHALELPLHRRTQRLEAVWSIEAYRKKEDANQVLLELAILDYNMIQSVYQRDLRETSRWWRRVGLATKLHFARDRLIESFYWAVGVAFEPQYSDCRNSVAKMFSFVTIINDIYDVYGTLDELELFTDAVERWDVNAINDLPDYMKLCFLALYNTINEIAYDNLKDKGENILPYLTKAWADLCNAFLQEAKWLYNKSTPTFDDYFGNAWKSSSGPLQLVFAYFAVVQNIKKEEIENLQKYHDTISRPSHIFRLCNDLASASAEIARGETANSVSCYMRTKGISEELATESVMNLIDETWKKMNKEKLGGSLFAKPFVETAINLARQSHCTYHNGDAHTSPDELTRKRVLSVITEPILPFER | 0.58
D345Q: P. alba IspS variant (protein, UniProt Q50L36 38-595, looked up, variant D345Q) Isoprene synthase, …: CSVSTENVSFTETETEARRSANYEPNSWDYDYLLSSDTDESIEVYKDKAKKLEAEVRREINNEKAEFLTLLELIDNVQRLGLGYRFESDIRGALDRFVSSGGFDAVTKTSLHGTALSFRLLRQHGFEVSQEAFSGFKDQNGNFLENLKEDIKAILSLYEASFLALEGENILDEAKVFAISHLKELSEEKIGKELAEQVNHALELPLHRRTQRLEAVWSIEAYRKKEDANQVLLELAILDYNMIQSVYQRDLRETSRWWRRVGLATKLHFARDRLIESFYWAVGVAFEPQYSDCRNSVAKMFSFVTIIQDIYDVYGTLDELELFTDAVERWDVNAINDLPDYMKLCFLALYNTINEIAYDNLKDKGENILPYLTKAWADLCNAFLQEAKWLYNKSTPTFDDYFGNAWKSSSGPLQLVFAYFAVVQNIKKEEIENLQKYHDTISRPSHIFRLCNDLASASAEIARGETANSVSCYMRTKGISEELATESVMNLIDETWKKMNKEKLGGSLFAKPFVETAINLARQSHCTYHNGDAHTSPDELTRKRVLSVITEPILPFER | 0.56
D345T: P. alba IspS variant (protein, UniProt Q50L36 38-595, looked up, variant D345T) Isoprene synthase, …: CSVSTENVSFTETETEARRSANYEPNSWDYDYLLSSDTDESIEVYKDKAKKLEAEVRREINNEKAEFLTLLELIDNVQRLGLGYRFESDIRGALDRFVSSGGFDAVTKTSLHGTALSFRLLRQHGFEVSQEAFSGFKDQNGNFLENLKEDIKAILSLYEASFLALEGENILDEAKVFAISHLKELSEEKIGKELAEQVNHALELPLHRRTQRLEAVWSIEAYRKKEDANQVLLELAILDYNMIQSVYQRDLRETSRWWRRVGLATKLHFARDRLIESFYWAVGVAFEPQYSDCRNSVAKMFSFVTIITDIYDVYGTLDELELFTDAVERWDVNAINDLPDYMKLCFLALYNTINEIAYDNLKDKGENILPYLTKAWADLCNAFLQEAKWLYNKSTPTFDDYFGNAWKSSSGPLQLVFAYFAVVQNIKKEEIENLQKYHDTISRPSHIFRLCNDLASASAEIARGETANSVSCYMRTKGISEELATESVMNLIDETWKKMNKEKLGGSLFAKPFVETAINLARQSHCTYHNGDAHTSPDELTRKRVLSVITEPILPFER | 0.56
D345L: P. alba IspS variant (protein, UniProt Q50L36 38-595, looked up, variant D345L) Isoprene synthase, …: CSVSTENVSFTETETEARRSANYEPNSWDYDYLLSSDTDESIEVYKDKAKKLEAEVRREINNEKAEFLTLLELIDNVQRLGLGYRFESDIRGALDRFVSSGGFDAVTKTSLHGTALSFRLLRQHGFEVSQEAFSGFKDQNGNFLENLKEDIKAILSLYEASFLALEGENILDEAKVFAISHLKELSEEKIGKELAEQVNHALELPLHRRTQRLEAVWSIEAYRKKEDANQVLLELAILDYNMIQSVYQRDLRETSRWWRRVGLATKLHFARDRLIESFYWAVGVAFEPQYSDCRNSVAKMFSFVTIILDIYDVYGTLDELELFTDAVERWDVNAINDLPDYMKLCFLALYNTINEIAYDNLKDKGENILPYLTKAWADLCNAFLQEAKWLYNKSTPTFDDYFGNAWKSSSGPLQLVFAYFAVVQNIKKEEIENLQKYHDTISRPSHIFRLCNDLASASAEIARGETANSVSCYMRTKGISEELATESVMNLIDETWKKMNKEKLGGSLFAKPFVETAINLARQSHCTYHNGDAHTSPDELTRKRVLSVITEPILPFER | 0.65
